In patent US7332279B2 (Glycozym APS, priority 1999, dated 2008):

How the values were obtained:
[1] = system: human colonic β3Gal-transferase activity; conditions: acceptor substrate; read-out: apparent Km, human colonic β3Gal-T activity; cited from earlier work
β3Gal-T1 = target: T1, β3Gal-T1 (Homo sapiens, UniProt Q9Y5Z6); experiment: Galactosyltransferase assay with glycoprotein acceptors, β3Gal-T1; type: biochemical; conditions: for β3Gal-T1 activity with glycoprotein acceptor: 0.5 mg glycoprotein, 150 μM UDP-Gal
T1 construct: The kinetic properties were determined with partially purified, secreted forms of the enzymes; made in house; host or cells: baculovirus; Sf9 / High Five insect cells, medium
T1 sequence (Q9Y5Z6 27-326 limits assumed): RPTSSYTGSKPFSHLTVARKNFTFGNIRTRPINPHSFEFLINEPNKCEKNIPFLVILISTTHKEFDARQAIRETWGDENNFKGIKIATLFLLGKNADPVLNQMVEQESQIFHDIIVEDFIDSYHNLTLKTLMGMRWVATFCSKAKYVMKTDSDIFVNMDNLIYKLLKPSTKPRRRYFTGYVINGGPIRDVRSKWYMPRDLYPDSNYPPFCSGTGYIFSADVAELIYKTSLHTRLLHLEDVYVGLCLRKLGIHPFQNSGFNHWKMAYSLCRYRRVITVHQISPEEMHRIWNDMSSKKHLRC
Procedure: (§1) The kinetic properties were determined with partially purified, secreted forms of the enzymes. Semipurification of enzymes from serum-free medium of infected High-Five™ cells was performed by sequential Amberlite, DEAE-Sephacel and 5-Sepharose chromatography as described previously (Wandall, H. H., Hassan, H., Mirgorodskaya, E., et al. Substrate specificities of three. members of the human UDP-N-acetyl-alpha-D-galactosamine:Polypeptide Nacetylgalactosaminyltransferase family, GalNAc-T1, -T2, and -T3. J. Biol. Chem. 272:23503-23514, 1997). Comparisons of enzymes were performed relatively to the activity obtained with βGlcNAc-Bz1 (Tables II and III). Full length enzymes were assayed with 1% Triton CF54 homogenates of washed cells. Enzyme assays were performed in 50 μl total reaction mixtures containing 25 mM Cacodylate (pH 7.5), 10 mM MnCl2, 0.25% Triton X-100, 100 μM UDP-[^14C]-Gal (2,600 cpm/nmol) (Amersham), and varying concentrations of acceptor substrates (Sigma) (see Table I for structures). Reaction products were quantified by Dowex-1 chromatography. […] The transfer of Gal was evaluated after acid precipitation by filtration through Whatman GF/C glass fibre filters. […] Assays with glycolipid acceptors were conducted as previously described (Holmes, E. H. Characterization and membrane organization of beta 1-3- and beta 1-4-galactosyltransferases from human colonic adenocarcinoma cell lines Cob 205 and SW403: basis for preferential synthesis of type 1 chain lacto-series carbohydrate structures. Arch Biochem Biophys 270:630-646, 1989) in reaction mixtures containing 2.5 μmol HEPES buffer, pH 7.2, μmol MnCl2, 100 μg taurodeoxycholate or Triton CF-54, 20 μg acceptor glycolipid, 15 nmol UDP-[^14C]-galactose (13,000 cpm/nmol) and enzyme in a total volume of 100 μl. Conditions for incubation and product isolation were as previously described (Id.).

β3Gal-T2 = target: T2, β3Gal-T2 (Homo sapiens, UniProt O43825); experiment: Galactosyltransferase assay with glycoprotein acceptors, β3Gal-T2; type: biochemical; conditions: for β3Gal-T2 activity with glycoprotein acceptor: 0.5 mg glycoprotein, 150 μM UDP-Gal
T2 construct: The kinetic properties were determined with partially purified, secreted forms of the enzymes; made in house; host or cells: baculovirus; Sf9 / High Five insect cells, medium
T2 sequence (O43825 46-422 limits assumed): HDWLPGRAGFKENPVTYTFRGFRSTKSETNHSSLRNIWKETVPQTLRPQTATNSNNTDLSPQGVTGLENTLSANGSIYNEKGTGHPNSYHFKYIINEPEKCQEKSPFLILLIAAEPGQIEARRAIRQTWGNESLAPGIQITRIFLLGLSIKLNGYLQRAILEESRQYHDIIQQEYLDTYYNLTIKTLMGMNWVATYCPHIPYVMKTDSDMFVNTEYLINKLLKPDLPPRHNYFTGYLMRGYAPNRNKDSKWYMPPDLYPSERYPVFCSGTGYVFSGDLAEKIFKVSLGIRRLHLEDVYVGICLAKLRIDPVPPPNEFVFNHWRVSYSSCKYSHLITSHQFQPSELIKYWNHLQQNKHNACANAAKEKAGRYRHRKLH
Procedure: as §1

β3Gal-T5 [2] = target: T3, β3Gal-T5 (Homo sapiens, UniProt Q9Y2C3, M85T); experiment: Galactosyltransferase assay with glycoprotein acceptors, β3Gal-T5; type: biochemical; conditions: for β3Gal-T5 activity with glycoprotein acceptor: 0.5 mg glycoprotein, 150 μM UDP-Gal
T3 construct: designed to exclude the hydrophobic transmembrane segment and to encode amino acid residues 25-310; secretion signal of vector pAcGP67B (gp67); made in house; host or cells: baculovirus; Sf9 cells (media) and High Five cells (serum-free medium, partially purified)
T3 sequence (Q9Y2C3 25-310 M85T): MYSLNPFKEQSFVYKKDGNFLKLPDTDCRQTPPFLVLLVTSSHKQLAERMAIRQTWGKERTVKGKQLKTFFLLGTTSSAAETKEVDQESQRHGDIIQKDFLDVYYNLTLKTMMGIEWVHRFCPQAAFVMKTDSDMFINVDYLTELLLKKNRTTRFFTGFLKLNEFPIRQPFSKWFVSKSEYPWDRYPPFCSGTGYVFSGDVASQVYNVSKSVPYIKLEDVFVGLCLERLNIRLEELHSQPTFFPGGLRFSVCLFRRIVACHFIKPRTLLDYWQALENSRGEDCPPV
Procedure: as §1

β3Gal-T5 [3] = target: T3, β3Gal-T5; experiment: Galactosyltransferase assay with glycolipid acceptors, β3Gal-T5; type: biochemical
Procedure: as §1

[4] = system: β3Gal-T activity from Colo205 cells; conditions: acceptor substrate; cited from earlier work

For `CC(=O)N[C@H]1[C@H](O[C@H]2[C@@H](O)[C@@H](CO)O[C@@H](O[C@H]3[C@H](O)[C@@H](O)C(O)O[C@@H]3CO)[C@@H]2O)O[C@H](CO)[C@@H](O)[C@@H]1O` (stereo partly drawn) [β-D-GlcNAc(1-3)-D-β-Gal(1-4)-D-β-Glc], the Km [1] is given as 2900 µM.

In the case of “Asialo-agalacto-fetuin: glycoprotein acceptor substrate”, the “β3Gal-T1 ratio glycoprotein / β-D-GlcNAc-Bzl” value (β3Gal-T1) is reported as “(0.3)”, the “β3Gal-T1 activity with glycoprotein acceptor” value (“β3Gal-T1 activity” for short) (β3Gal-T1) is reported as 0.01 mmol/min and the “β3Gal-T2 ratio glycoprotein / β-D-GlcNAc-Bzl” value (β3Gal-T2) is reported as “(1.8)”. The “β3Gal-T2 activity with glycoprotein acceptor” value (“β3Gal-T2 activity” below) (β3Gal-T2) was 0.07 mmol/min, the “β3Gal-T5 ratio glycoprotein / β-D-GlcNAc-Bzl” value (β3Gal-T5 [2]) was “(0.0)” and the “β3Gal-T5 activity with glycoprotein acceptor” value (β3Gal-T5 [2]) was 0.0 mmol/min.

For Bovine submaxillary mucin, the “β3Gal-T1 ratio glycoprotein / β-D-GlcNAc-Bzl” value (β3Gal-T1) was “(0.0)”, the “β3Gal-T1 activity” value (β3Gal-T1) was 0.0 mmol/min and the “β3Gal-T2 ratio glycoprotein / β-D-GlcNAc-Bzl” value (β3Gal-T2) was “(0.0)”. For the same molecule, the “β3Gal-T2 activity” value (β3Gal-T2) was 0.0 mmol/min, the “β3Gal-T5 ratio glycoprotein / β-D-GlcNAc-Bzl” value (β3Gal-T5 [2]) was “(0.4)” and the “β3Gal-T5 activity with glycoprotein acceptor” value (β3Gal-T5 [2]) was 0.04 mmol/min.

In the case of GlcNAcβ1-3Galβ1-4Glcβ1-Cer [Lc3], the “β3Gal-T5 activity with glycolipid acceptor, Triton CF-54” value (β3Gal-T5 [3]; 100 μg Triton CF-54/100 μl, 20 μg glycolipid) is reported as 3.6 µmol/h/mg, the “β3Gal-T5 activity with glycolipid acceptor, TDOC” value (β3Gal-T5 [3]; 100 μg taurodeoxycholate/100 μl, 20 μg glycolipid) is reported as 4.4 µmol/h/mg and the Km (β3Gal-T5 [3]; in the presence taurodeoxycholate, based on data points at low concentrations (substrate inhibition), read-out: apparent Km of β3Gal-T5) is reported as about 2 µM. The Km [4] was 13 µM.

With “Orosomucoid: glycoprotein acceptor substrate” the “β3Gal-T1 ratio glycoprotein / β-D-GlcNAc-Bzl” value (β3Gal-T1) was “(0.0)”, the “β3Gal-T1 activity” value (β3Gal-T1) was 0.0 mmol/min and the “β3Gal-T2 ratio glycoprotein / β-D-GlcNAc-Bzl” value (β3Gal-T2) was “(0.0)”. For the same molecule, the “β3Gal-T2 activity” value (β3Gal-T2) was 0.0 mmol/min, the “β3Gal-T5 ratio glycoprotein / β-D-GlcNAc-Bzl” value (β3Gal-T5 [2]) was “(0.0)” and the “β3Gal-T5 activity with glycoprotein acceptor” value (β3Gal-T5 [2]) was 0.0 mmol/min.

B1: Hen egg albumin: glycoprotein acceptor substrate (protein, UniProt P01012 2-386, looked up)
Ovalbumin: GSIGAASMEFCFDVFKELKVHHANENIFYCPIAIMSALAMVYLGAKDSTRTQINKVVRFDKLPGFGDSIEAQCGTSVNVHSSLRDILNQITKPNDVYSFSLASRLYAEERYPILPEYLQCVKELYRGGLEPINFQTAADQARELINSWVESQTNGIIRNVLQPSSVDSQTAMVLVNAIVFKGLWEKAFKDEDTQAMPFRVTEQESKPVQMMYQIGLFRVASMASEKMKILELPFASGTMSMLVLLPDEVSGLEQLESIINFEKLTEWTSSNVMEERKIKVYLPRMKMEEKYNLTSVLMAMGITDVFSSSANLSGISSAESLKISQAVHAAHAEINEAGREVVGSAEAGVDAASVSEEFRADHPFLFCIKHIATNAVLFFGRCVSP
With B1 the “β3Gal-T1 ratio glycoprotein / β-D-GlcNAc-Bzl” value (β3Gal-T1) was “(0.0)”, the “β3Gal-T1 activity” value (β3Gal-T1) was 0.0 mmol/min and the “β3Gal-T2 ratio glycoprotein / β-D-GlcNAc-Bzl” value (β3Gal-T2) was “(0.5)”. For the same molecule, the “β3Gal-T2 activity” value (β3Gal-T2) was 0.02 mmol/min, the “β3Gal-T5 ratio glycoprotein / β-D-GlcNAc-Bzl” value (β3Gal-T5 [2]) was “(0.0)” and the “β3Gal-T5 activity with glycoprotein acceptor” value (β3Gal-T5 [2]) was 0.0 mmol/min.
